Laboratory results taken from publication PMC5627596.

Tests used:
[1] = molecular target: heterodimeric Fcab JanusCT6 (one VEGF-binding CT6 chain, one Fc-wt chain) (human); experiment: ITC; 200 µM VEGF titrated into 40 µM Janus448 or JanusCT6 in the cell; PBS (pH 7.4), 25°C; one-set-of-sites model
[2] = molecular target: heterodimeric Fcab Janus448 (one VEGF-binding 448 chain, one Fc-wt chain) (human); experiment: as above

Kd [1]: 4 nM
dH [1]: -34 kcal/mol
stoichiometry N [1]: 0.5
Kd [2]: 26 nM
dH [2]: -25 kcal/mol
stoichiometry N [2]: 0.5
Substance: vascular endothelial growth factor (VEGF-A), truncated version, residues 14-108 (domain or fragment)
